Source: patent publication US20260209333A1 (VETMAB BIOSCIENCES, published 2026)
Each block holds one binder with its values, some of them ahead of it.

How the values were obtained:
[1] = target: T1, Canine TNF-alpha (Sino Biologicals) (canine, UniProt P51742 77-233); experiment: SPR, Biacore 8K, antibody captured on Protein A chip, antigen as analyte, 25 C
T1 construct: Bought protein; also called Canine TNFα
Description: This study was performed to measure the binding affinity of antibodies to antigens using a Biacore 8K.
(§1) All the data were processed using the Biacore 8K Evaluation software version 3.0. Flow cell 1 and blank injection of buffer in each cycle were used as double reference for Response Units subtraction.

Canine p40 polypeptide = target: T2, Canine p40 polypeptide (canine, UniProt Q28268 23-329); experiment: as above
T2 sequence (looked up): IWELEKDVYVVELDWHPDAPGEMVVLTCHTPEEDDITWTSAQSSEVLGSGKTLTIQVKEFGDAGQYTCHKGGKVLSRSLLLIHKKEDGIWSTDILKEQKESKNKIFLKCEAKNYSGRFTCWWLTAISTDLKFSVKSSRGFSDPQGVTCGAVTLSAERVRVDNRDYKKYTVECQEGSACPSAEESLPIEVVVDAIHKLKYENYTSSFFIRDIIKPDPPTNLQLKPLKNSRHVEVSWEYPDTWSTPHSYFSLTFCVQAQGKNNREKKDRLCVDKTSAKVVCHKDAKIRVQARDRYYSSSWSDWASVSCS
Description: (§2) This study was performed to measure the binding affinity of anti-IL23 antibodies to IL23 and p40 antigens using a Biacore 8K.
as §1

[2] = target: T3, Recombinant canine IL23 (single chain p40 + linker + p19, Avitag, polyHis tag) (canine); experiment: as above
T3 construct: Single chain p40-linker-p19 with a tag for site specific biotinylation and a polyHis tag, expressed in CHO cells as a monomeric protein; also called canine IL23 polypeptide
T3 chain: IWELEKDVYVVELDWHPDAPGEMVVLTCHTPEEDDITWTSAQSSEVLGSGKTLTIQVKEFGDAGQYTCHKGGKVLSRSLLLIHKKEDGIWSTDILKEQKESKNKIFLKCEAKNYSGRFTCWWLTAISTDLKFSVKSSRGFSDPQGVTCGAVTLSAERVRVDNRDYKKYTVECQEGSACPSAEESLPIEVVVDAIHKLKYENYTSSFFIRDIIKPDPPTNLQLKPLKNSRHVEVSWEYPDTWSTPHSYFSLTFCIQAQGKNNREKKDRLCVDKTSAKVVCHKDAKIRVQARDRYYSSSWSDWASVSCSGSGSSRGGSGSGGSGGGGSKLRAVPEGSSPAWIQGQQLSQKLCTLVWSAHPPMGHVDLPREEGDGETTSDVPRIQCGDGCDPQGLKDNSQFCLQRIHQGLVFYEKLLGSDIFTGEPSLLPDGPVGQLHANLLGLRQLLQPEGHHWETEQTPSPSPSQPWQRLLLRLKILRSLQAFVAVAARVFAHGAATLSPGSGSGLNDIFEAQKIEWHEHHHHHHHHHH
Description: as §2, §1

[3] = target: T3, Recombinant canine IL23 (single chain …); experiment: Biacore affinity assay ('Active' = specific binding to canine IL23)

T1 sequence (P51742 77-233 limits assumed): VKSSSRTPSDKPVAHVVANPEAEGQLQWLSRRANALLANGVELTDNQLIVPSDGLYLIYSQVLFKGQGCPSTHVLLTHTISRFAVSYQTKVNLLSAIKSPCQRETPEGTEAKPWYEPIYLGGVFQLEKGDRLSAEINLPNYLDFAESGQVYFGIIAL

binding result [3]: binds
B3: Anti-IL23 C340 VL / caninized VH variant V1 (antibody, V domains shown)
VH: EVQLVQSGAEVKKPGASVKVSCKGSGYSFTTYWLGWVRQAPGAGLDWMGIMSPVDSDIRYAGKFQGQVTMSVDTSTSTAYMELSSLRAGDIAVYYCARRRPGQGYFDFWGQGTLVTVSS
VL: DIQMTQSPSSLSASVGDRVTITCRASQGISSWLAWYQQKPEKAPKSLIYAASSLQSGVPSRFSGSGSGTDFTLTISSLQPEDFATYYCQQYNIYPYTFGQGTKLEIK
notes: also called VL C340 + VH V1

binding result [3]: binds
B4: Caninized anti-IL23 with VL domain V2.1 and VH domain V1.1 (antibody, V domains shown)
VH: EVQLVQSGAEVKKPGASVKVSCKGSGYSFTTYWLGWVRQAPGAGLDWMGIMSPVDSDIRYSPSFQGQVTMSVDTSTSTAYMELSSLRAGDIAVYYCARRRPGQGYFDFWGQGTLVTVSS
VL: DIVMTQTPLSLSVSPGEPASISCRASQGISSWLAWYQQKAEKAPKSLIYAASSLQSGVPDRFSGSGSGTDFTLRIGRVEAEDAGIYYCQQYNIYPYTFGQGTRLEVR
notes: also called VL V2.1 + VH V1.1; exemplary caninized anti-IL23

binding result [3]: binds
B5: Anti-IL23 caninized VL variant V2 / caninized VH variant V6 (antibody, human IgG1, V domains shown)
VH: EVQLVESGGDLVKPGGSLRLSCKGSGYSFTTYWLGWVRQAPGKGLQWIGIMSPVDSDIRYADAVKGRFTVSRDNAKRTLYLQMNSLRAEDTAIYYCARRRPGQGYFDFWGQGTLVTVSS
VL: DIVMTQTPLSLSVSPGEPASISCRASQGISSWLAWYLQKAGQSPRLLPYAASSLQSGVPDRFSGSGSGTDFTLRIGRVEAEDAGIYYCQQYNIYPYTFGQGTRLEVR
notes: also called VL V2 + VH V6

The next lines start with the binder.

B1: Caninized anti-TNFα D2E7 antibody (caninized VL + canine kappa constant region; caninized VH + canine IgG-B constant region) (antibody, V domains shown)
VH: EVQLVESGGDLVKPAESLRLSCVASGFTFDDYAMHWVRQAPGKGLEWVSAITWNSGHIDYADSVEGRFTISRDNARNTLYLQMNSLRAEDTAVYYCAKVSYLSTASSLDYWGQGTLVTVSS
VL: DIVMTQTPLSLSVSPGEPASISCRASQGIRNYLAWYQQKPGKAPKLLIYAASTLQSGVPDRFSGSGSGTDFTLRIGRVEAEDAGIYYCQRYNRAPYTFGQGTRLEVRR
notes: Expressed in Expi293F cells, 150 kDa, captured on a Protein A chip; also called Caninized Anti-TNF-VH-VL
Kd [1]: 3.91 nM
koff [1]: 0.000818 s⁻¹
kon [1]: 209000 M⁻¹ s⁻¹

B2: Chimeric anti-IL23 antibody (clone C340 VL and VH domains fused to canine kappa light chain constant region and canine IgG-B constant region) (antibody, V domains shown)
VH: EVQLVQSGAEVKKPGESLKISCKGSGYSFTTYWLGWVRQMPGKGLDWIGIMSPVDSDIRYSPSFQGQVTMSVDKSITTAYLQWNSLKASDTAMYYCARRRPGQGYFDFWGQGTLVTVSS
VL: DIQMTQSPSSLSASVGDRVTITCRASQGISSWLAWYQQKPEKAPKSLIYAASSLQSGVPSRFSGSGSGTDFTLTISSLQPEDFATYYCQQYNIYPYTFGQGTKLEIKR
notes: also called Anti-IL23-VH-VL; Anti-IL23 (full length IgG form)
Kd (Canine p40 polypeptide): 1.02 nM
koff (Canine p40 polypeptide): 0.00478 s⁻¹
kon (Canine p40 polypeptide): 4.68e+06 M⁻¹ s⁻¹
Kd [2]: 0.58 nM
koff [2]: 0.00338 s⁻¹
kon [2]: 5.83e+06 M⁻¹ s⁻¹
